Measurements: IntAct's records for PubMed 31515488

B1: Transcription factor 12 (Homo sapiens), Q99081-3 (parent)
chain: MNPQQQRMAAIGTDKELSDLLDFSAMFSPPVNSGKTRPTTLGSSQFSGSGIDERGGTTSWGTSGQPSPSYDSSRGFTDSPHYSDHLNDSRLGAHEGLSPTPFMNSNLMGKTSERGSFSLYSRDTGLPGCQSSLLRQDLGLGSPAQLSSSGKPGTAYYSFSATSSRRRPLHDSAALDPLQAKKVRKVPPGLPSSVYAPSPNSDDFNRESPSYPSPKPPTSMFASTFFMQDGTHNSSDLWSSSNGMSQPGFGGILGTSTSHMSQSSSYGNLHSHDRLSYPPHSVSPTDINTSLPPMSSFHRGSTSSSPYVAASHTPPINGSDSILGTRGNAAGSSQTGDALGKALASIYSPDHTSSSFPSNPSTPVGSPSPLTGTSQWPRPGGQAPSSPSYENSLHSLKNRVEQQLHEHLQDAMSFLKDVCEQSRMEDRLDRLDDAIHVLRNHAVGPSTSLPAGHSDIHSLLGPSHNAPIGSLNSNYGGSSLVASSRSASMVGTHREDSVSLNGNHSVLSSTVTTSSTDLNHKTQENYRGGLQSQSGTVVTTEIKTENKEKDENLHEPPSSDDMKSDDESSQKDIKVSSRGRTSSTNEDEDLNPEQKIEREKERRMANNARERLRVRDINEAFKELGRMCQLHLKSEKPQTKLLILHQAVAVILSLEQQVRERNLNPKAACLKRREEEKVSAVSAEPPTTLPGTHPGLSETTNPMGHM
partner: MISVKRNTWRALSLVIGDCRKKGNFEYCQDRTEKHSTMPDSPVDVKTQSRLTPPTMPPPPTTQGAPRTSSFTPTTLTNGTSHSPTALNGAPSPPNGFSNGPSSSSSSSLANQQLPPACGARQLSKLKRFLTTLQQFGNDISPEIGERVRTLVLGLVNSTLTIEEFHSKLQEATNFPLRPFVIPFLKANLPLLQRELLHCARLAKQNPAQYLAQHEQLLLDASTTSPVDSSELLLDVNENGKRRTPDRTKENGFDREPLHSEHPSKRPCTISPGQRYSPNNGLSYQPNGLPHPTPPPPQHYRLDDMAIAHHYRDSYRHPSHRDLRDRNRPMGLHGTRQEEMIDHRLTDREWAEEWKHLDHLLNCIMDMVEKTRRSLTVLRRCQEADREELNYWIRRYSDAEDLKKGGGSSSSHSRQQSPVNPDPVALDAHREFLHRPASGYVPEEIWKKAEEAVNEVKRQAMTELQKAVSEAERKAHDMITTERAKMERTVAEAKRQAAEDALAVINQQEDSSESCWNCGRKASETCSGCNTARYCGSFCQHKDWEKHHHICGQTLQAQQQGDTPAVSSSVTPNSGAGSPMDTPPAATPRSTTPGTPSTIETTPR
B2: Sodium channel modifier 1 (Homo sapiens), Q9BWG6 (parent)
chain: MSFKREGDDWSQLNVLKKRRVGDLLASYIPEDEALMLRDGRFACAICPHRPVLDTLAMLTAHRAGKKHLSSLQLFYGKKQPGKERKQNPKHQNELRREETKAEAPLLTQTRLITQSALHRAPHYNSCCRRKYRPEAPGPSVSLSPMPPSEVKLQSGKISREPEPAAGPQAEESATVSAPAPMSPTRRRALDHYLTLRSSGWIPDGRGRWVKDENVEFDSDEEEPPDLPLD
partner: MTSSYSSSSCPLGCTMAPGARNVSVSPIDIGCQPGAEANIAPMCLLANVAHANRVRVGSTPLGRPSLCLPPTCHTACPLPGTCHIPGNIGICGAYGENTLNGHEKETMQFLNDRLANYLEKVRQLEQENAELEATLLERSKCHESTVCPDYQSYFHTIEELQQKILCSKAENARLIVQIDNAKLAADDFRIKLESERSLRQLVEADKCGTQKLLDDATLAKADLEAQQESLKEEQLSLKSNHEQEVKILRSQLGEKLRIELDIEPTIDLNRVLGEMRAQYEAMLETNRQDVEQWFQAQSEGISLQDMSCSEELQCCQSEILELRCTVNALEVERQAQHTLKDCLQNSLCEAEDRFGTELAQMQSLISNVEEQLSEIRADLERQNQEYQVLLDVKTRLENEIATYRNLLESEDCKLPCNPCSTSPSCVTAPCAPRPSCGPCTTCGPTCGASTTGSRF
B3: Medium-chain acyl-CoA ligase ACSF2, mitochondrial (Homo sapiens), Q96CM8 (parent)
chain: MAVYVGMLRLGRLCAGSSGVLGARAALSRSWQEARLQGVRFLSSREVDRMVSTPIGGLSYVQGCTKKHLNSKTVGQCLETTAQRVPEREALVVLHEDVRLTFAQLKEEVDKAASGLLSIGLCKGDRLGMWGPNSYAWVLMQLATAQAGIILVSVNPAYQAMELEYVLKKVGCKALVFPKQFKTQQYYNVLKQICPEVENAQPGALKSQRLPDLTTVISVDAPLPGTLLLDEVVAAGSTRQHLDQLQYNQQFLSCHDPINIQFTSGTTGSPKGATLSHYNIVNNSNILGERLKLHEKTPEQLRMILPNPLYHCLGSVAGTMMCLMYGATLILASPIFNGKKALEAISRERGTFLYGTPTMFVDILNQPDFSSYDISTMCGGVIAGSPAPPELIRAIINKINMKDLVVAYGTTENSPVTFAHFPEDTVEQKAESVGRIMPHTEARIMNMEAGTLAKLNTPGELCIRGYCVMLGYWGEPQKTEEAVDQDKWYWTGDVATMNEQGFCKIVGRSKDMIIRGGENIYPAELEDFFHTHPKVQEVQVVGVKDDRMGEEICACIRLKDGEETTVEEIKAFCKGKISHFKIPKYIVFVTNYPLTISGKIQKFKLREQMERHLNL
partner: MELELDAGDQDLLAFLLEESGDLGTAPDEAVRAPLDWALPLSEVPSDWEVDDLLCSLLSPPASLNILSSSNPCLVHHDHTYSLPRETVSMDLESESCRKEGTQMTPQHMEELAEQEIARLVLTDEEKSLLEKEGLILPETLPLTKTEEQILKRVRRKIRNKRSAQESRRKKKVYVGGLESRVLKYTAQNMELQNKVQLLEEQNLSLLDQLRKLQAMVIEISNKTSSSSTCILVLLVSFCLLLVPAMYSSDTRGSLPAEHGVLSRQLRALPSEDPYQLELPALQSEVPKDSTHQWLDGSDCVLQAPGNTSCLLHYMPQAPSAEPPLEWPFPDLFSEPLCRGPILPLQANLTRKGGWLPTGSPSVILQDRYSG
B4: Zinc finger protein 655 (Homo sapiens), Q8N720 (parent)
chain: MEEIPAQEAAGSPRVQFQSLETQSECLSPEPQFVQDTDMEQGLTGDGETREENKLLIPKQKISEEVHSYKVRVGRLKHDITQVPETREVYKSEDRLERLQEILRKFLYLEREFRQITISKETFTSEKNNECHEPEKSFSLDSTIDADQRVLRIQNTDDNDKYDMSFNQNSASGKHEHLNLTEDFQSSECKESLMDLSHLNKWESIPNTEKSYKCDVCGKIFHQSSALTRHQRIHTREKPYKCKECEKSFSQSSSLSRHKRIHTREKPYKCEASDKSCEASDKSCSPSSGIIQHKKIHTRAKSYKCSSCERVFSRSVHLTQHQKIHKEMPCKCTVCGSDFCHTSYLLEHQRVHHEEKAYEYDEYGLAYIKQQGIHFREKPYTCSECGKDFRLNSHLIQHQRIHTGEKAHECNECGKAFSQTSCLIQHHKMHRKEKSYECNEYEGSFSHSSDLILQQEVLTRQKAFDCDVWEKNSSQRAHLVQHQSIHTKENS
partner: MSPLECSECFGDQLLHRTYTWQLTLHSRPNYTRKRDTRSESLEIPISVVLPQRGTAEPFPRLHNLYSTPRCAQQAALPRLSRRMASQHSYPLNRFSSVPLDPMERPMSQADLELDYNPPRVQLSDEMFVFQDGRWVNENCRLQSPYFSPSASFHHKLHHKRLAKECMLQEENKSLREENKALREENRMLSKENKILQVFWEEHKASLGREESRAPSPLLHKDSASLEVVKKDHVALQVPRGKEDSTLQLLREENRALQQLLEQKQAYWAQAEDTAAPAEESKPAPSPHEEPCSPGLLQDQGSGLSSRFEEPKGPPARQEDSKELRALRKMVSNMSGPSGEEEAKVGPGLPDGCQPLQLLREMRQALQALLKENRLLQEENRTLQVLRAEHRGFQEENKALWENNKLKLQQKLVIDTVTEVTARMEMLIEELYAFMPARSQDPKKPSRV
B5: UPF0193 protein EVG1 (Homo sapiens), Q9BZE7 (parent)
chain: MASQKQMEVVTKGTGFRRRPKTITYTPGTCELLRVMMKESKLTNIQQRHIMDIMKRGDALPLQCSPTSSQRVLPSKQIASPIYLPPILAARPHLRPANMCQANGAYSREQFKPQATRDLEKEKQRLQNIFATGKDMEERKRKAPPARQKAPAPELDRFEELVKEIQERKEFLADMEALGQGKQYRGIILAEISQKLREMEDIDHRRSEELRKGLATT
B6: 26S proteasome non-ATPase regulatory subunit 9 (Homo sapiens), O00233 (parent)
chain: MSDEEARQSGGSSQAGVVTVSDVQELMRRKEEIEAQIKANYDVLESQKGIGMNEPLVDCEGYPRSDVDLYQVRTARHNIICLQNDHKAVMKQVEEALHQLHARDKEKQARDMAEAHKEAMSRKLGQSESQGPPRAFAKVNSISPGSPASIAGLQVDDEIVEFGSVNTQNFQSLHNIGSVVQHSEGKPLNVTVIRRGEKHQLRLVPTRWAGKGLLGCNIIPLQR

Variants of: B1
Conditions: with mtg8_human RUNX1T1, Q06455
With A155T the “effect of a mutation on the interaction” value was “with no effect”. For Y120C, the “effect of a mutation on the interaction” value was “with no effect”. With S446F the “effect of a mutation on the interaction” value was “with no effect”. A482V was tested, and the “effect of a mutation on the interaction” value was “with no effect”. For R74G, the “effect of a mutation on the interaction” value was “with no effect”.

Variants of: B2
Conditions: with krt38_human KRT38, O76015
In the case of A174V, the “effect of a mutation on the interaction” value is reported as “with no effect”.

Variants of: B3
Conditions: with creb3_human CREB3, O43889
G19W was tested, and the “effect of a mutation on the interaction” value was “disrupting interaction strength”. In the case of A34V, the “effect of a mutation on the interaction” value is reported as “disrupting interaction strength”.

Variants of: B4
Conditions: with cby2_human CBY2, Q8NA61
With C466G the “effect of a mutation on the interaction” value was “with no effect”.

Variants of: B5
Conditions: with ccdb1_human CCNDBP1, O95273
Chain of ccdb1_human CCNDBP1, O95273 (O95273 whole entry): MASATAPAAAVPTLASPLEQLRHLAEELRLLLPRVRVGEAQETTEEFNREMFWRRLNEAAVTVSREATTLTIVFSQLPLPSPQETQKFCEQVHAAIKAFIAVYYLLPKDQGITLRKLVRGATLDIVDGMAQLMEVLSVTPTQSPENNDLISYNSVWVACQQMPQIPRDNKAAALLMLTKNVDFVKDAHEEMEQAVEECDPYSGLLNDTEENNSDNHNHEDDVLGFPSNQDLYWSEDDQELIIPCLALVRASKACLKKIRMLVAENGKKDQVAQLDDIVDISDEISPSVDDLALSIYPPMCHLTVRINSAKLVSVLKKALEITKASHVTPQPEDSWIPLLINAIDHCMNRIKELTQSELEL
For M136L, the “effect of a mutation on the interaction” value was “with no effect”.

Variants of: B6
Conditions: with prs6a_human PSMC3, P17980
Chain of prs6a_human PSMC3, P17980 (P17980 whole entry): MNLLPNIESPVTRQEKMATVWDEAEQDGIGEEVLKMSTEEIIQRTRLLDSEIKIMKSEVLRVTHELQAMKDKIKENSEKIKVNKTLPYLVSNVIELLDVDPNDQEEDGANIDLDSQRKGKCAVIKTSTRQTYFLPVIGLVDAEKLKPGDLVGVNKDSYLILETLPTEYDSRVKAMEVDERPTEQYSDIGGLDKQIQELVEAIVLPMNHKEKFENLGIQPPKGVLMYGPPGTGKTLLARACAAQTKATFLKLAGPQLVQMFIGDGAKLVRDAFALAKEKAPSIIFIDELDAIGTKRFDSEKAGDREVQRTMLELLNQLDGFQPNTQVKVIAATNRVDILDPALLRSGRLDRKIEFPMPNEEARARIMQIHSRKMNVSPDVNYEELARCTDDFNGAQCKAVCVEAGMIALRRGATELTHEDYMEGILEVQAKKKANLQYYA
For E197G, the “effect of a mutation on the interaction” value was “with no effect”.

Variants of: B6
Conditions: with spn90_human NCKIPSD
In the case of E197G, the “effect of a mutation on the interaction” value is reported as “with no effect”.
